Measurements from patent US20240287172A1 (SCIRHOM, published 2024).
Positions count from the first letter of the chain named.

T1: hiR2-FL-N503A-T7 (human, UniProt Q6PJF5 1-856)
T1 sequence: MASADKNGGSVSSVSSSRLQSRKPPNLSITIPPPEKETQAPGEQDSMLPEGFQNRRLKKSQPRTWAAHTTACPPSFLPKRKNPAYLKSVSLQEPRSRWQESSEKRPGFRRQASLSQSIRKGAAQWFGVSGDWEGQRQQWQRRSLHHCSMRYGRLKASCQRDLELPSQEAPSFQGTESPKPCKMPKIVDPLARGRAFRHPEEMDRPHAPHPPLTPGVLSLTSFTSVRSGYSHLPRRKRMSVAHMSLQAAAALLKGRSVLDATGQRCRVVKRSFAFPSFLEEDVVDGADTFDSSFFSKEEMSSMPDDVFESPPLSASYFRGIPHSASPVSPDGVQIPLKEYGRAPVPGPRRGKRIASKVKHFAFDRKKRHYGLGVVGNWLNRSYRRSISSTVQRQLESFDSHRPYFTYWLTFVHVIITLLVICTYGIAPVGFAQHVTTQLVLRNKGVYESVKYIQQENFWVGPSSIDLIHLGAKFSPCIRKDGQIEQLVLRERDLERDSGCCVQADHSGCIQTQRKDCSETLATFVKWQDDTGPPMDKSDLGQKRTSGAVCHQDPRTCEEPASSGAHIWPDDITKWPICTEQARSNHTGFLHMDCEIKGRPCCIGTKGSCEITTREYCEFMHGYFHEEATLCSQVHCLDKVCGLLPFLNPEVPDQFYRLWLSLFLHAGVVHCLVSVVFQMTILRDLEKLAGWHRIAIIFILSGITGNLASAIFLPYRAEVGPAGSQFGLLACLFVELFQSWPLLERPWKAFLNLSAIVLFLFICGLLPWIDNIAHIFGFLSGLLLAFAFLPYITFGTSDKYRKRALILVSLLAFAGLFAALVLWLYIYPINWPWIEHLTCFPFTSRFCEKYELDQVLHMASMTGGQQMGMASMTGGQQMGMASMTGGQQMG

T2: hiR2-FL-D504A-T7 (human, UniProt Q6PJF5 1-856)
T2 construct: reduced surface expression reported
T2 sequence: T1 sequence with A503N, D504A

B1: antibody 48 (antibody, V domains shown)
VH: QVQLQQSGTELVRPGTSVKVSCKASGYAFTNYLIEWVKQRPGQGLEWIGVINPGSGFTKYNEKFKGKATLTADKSSSTVYMHLSSLTSEDSAVYFCARGLYRAMDYWGQGTSVTVSS
VL: DIQMTQSPASQSASLGESVTITCLASQTIATWLAWYQQKPGKSPQLLIYGATTLADGVPSRFSGGGSGTKFSFKISSLQAEDFVSYYCQQLYSTPYTFGGGTKLEIK
notes: mouse IgG, kappa light chain; also called clone #48; purified antibody 48
B2: antibody 50 (antibody, V domains shown)
VH: B1 VH with T9A, T16A, T30S, V79A, H82Q
VL: B1 VL with A30G, G50A, T52A, T53S, S85N, L91I
notes: mouse IgG, kappa light chain; also called clone #50; purified antibody 50

Assays:
hiR2-FL-N503A-T7 = biological target: T1, hiR2-FL-N503A-T7; test: FACS on MEF-DKO cells expressing the variant, 3 µg/ml antibody
Outline: (§1)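 Flow cytometry read-out of binding to variant-expressing cells after two-step staining on ice: 1 h with antibody at 3 μg/ml, then 1 h with PE-labelled goat anti-mouse IgG F(ab′)2 diluted 1:100. Controls received FACS buffer without primary antibody.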

hiR2-FL-D504A-T7 = biological target: T2, hiR2-FL-D504A-T7; test: as above
Outline: as §1

| Binder | loss of binding vs wild type (hiR2-FL-N503A-T7) [%] | loss of binding vs wild type (hiR2-FL-D504A-T7) [%] |
| --- | --- | --- |
| B1 | ≥ 30 | ≥ 60 |
| B2 | ≥ 30 | ≥ 60 |
